The values below come from doi:10.64898/2026.08.16.745104, “C. elegans Dicer stacks with the RIG-I-like receptor DRH-1 to cleave dsRNA”.

For this data set, the target named is DCR-1;DRH-1;RDE-4 (Caenorhabditis elegans;Caenorhabditis …, UniProt P34529;G5EDI8;G5EBF5 1-1910;1-1037;1-385, ||). Briefly: cryo-EM structure, 3.0 A; 5 mM ATP, 20 C; ADP modelled in DCR-1, DRH-1 and DRH-1*; Mg2+; cleavage-competent state, poised for second cleavage; RDE-4 dsRBM2 density not seen; Cryo-EM; sample buffer not given in material. Lysis/resuspension buffer 25 mM HEPES pH 7.5, 10 mM KOAc, 2 mM Mg(OAc)2, 100 mM KCl, 1 mM TCEP, 5% glycerol; RNA annealed in 50 mM Tris pH 8.0, 20 mM KCl; ATP sample incubated at 20 C. Particulars: protein: recombinant;recombinant;recombinant; (StrepTrap purification); copies: 1;1;1; 2 nt 3' overhangs at both termini.
Sequence of DCR-1;DRH-1;RDE-4 (P34529 whole entry, chain 1 of 3): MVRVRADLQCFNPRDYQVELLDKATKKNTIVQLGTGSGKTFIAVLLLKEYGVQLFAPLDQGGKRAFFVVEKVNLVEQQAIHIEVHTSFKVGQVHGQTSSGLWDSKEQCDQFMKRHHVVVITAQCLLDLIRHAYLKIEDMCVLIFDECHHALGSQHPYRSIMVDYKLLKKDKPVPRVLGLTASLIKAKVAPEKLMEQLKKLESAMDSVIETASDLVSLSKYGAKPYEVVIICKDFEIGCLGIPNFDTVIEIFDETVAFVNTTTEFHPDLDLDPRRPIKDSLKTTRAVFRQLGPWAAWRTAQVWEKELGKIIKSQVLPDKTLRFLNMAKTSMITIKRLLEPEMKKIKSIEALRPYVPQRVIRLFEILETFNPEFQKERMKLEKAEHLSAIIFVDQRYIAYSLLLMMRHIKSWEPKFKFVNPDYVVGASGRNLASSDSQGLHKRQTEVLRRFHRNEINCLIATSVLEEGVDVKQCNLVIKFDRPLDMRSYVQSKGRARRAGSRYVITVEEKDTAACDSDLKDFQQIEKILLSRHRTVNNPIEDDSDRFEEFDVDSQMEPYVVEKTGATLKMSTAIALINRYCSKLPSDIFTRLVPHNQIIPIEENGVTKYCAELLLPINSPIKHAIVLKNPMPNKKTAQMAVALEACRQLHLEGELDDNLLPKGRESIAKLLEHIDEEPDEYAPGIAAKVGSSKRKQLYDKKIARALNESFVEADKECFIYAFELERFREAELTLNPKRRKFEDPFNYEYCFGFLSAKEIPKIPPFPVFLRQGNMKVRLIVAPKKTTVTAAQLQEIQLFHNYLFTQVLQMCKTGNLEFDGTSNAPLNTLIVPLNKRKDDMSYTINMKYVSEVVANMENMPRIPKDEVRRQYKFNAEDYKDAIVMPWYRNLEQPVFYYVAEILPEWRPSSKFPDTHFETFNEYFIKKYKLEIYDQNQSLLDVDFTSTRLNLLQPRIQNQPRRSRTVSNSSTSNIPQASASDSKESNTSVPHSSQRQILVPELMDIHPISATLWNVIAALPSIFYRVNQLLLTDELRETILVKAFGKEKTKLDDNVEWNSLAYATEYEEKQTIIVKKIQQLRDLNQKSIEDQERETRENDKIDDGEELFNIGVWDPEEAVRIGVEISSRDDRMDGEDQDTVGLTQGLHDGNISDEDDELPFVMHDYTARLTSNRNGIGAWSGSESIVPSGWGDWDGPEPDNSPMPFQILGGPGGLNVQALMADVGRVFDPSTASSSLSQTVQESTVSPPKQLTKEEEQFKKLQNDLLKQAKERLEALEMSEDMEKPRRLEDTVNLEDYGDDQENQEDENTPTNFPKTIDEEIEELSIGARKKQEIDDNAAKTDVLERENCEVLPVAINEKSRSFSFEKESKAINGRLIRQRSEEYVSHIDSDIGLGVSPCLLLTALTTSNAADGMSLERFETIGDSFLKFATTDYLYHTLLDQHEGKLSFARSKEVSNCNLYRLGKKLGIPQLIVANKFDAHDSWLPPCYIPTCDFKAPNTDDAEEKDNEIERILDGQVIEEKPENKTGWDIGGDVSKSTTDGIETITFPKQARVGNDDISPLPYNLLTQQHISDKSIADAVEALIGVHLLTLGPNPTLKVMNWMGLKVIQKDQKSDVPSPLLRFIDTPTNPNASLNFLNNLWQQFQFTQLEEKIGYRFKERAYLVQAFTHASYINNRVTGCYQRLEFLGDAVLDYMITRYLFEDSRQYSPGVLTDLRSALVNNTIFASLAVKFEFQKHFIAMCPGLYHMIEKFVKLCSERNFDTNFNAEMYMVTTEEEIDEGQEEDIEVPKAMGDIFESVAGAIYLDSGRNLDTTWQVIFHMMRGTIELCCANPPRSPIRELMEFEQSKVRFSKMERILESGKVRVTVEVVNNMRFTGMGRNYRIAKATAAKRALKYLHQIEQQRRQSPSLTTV
Sequence of DCR-1;DRH-1;RDE-4 (chain, as listed by the source ||, chain 2 of 3): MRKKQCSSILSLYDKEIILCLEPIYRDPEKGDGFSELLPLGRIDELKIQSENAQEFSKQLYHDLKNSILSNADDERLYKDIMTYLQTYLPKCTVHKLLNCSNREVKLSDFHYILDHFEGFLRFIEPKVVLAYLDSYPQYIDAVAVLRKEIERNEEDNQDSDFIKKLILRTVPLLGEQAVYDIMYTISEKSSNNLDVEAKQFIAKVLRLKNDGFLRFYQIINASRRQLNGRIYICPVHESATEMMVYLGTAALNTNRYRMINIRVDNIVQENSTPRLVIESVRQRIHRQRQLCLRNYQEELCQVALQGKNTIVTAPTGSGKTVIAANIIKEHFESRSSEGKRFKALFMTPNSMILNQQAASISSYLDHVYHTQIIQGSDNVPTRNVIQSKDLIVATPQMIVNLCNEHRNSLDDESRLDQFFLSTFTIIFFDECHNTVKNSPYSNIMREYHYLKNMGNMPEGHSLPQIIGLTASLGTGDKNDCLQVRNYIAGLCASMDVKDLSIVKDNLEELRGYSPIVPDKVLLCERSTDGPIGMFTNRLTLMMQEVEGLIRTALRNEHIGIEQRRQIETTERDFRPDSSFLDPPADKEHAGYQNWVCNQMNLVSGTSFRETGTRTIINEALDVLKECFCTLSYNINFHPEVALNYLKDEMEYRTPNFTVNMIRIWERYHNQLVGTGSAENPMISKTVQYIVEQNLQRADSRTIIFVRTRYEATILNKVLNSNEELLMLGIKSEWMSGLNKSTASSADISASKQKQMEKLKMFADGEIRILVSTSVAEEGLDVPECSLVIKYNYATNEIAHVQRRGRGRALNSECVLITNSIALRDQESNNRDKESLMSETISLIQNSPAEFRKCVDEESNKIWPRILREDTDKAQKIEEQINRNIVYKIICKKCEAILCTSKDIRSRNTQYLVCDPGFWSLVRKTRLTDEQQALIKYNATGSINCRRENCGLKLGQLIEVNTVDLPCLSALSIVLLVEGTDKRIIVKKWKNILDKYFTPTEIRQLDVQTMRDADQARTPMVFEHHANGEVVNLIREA
Sequence of DCR-1;DRH-1;RDE-4 (chain, as listed by the source ||, chain 3 of 3): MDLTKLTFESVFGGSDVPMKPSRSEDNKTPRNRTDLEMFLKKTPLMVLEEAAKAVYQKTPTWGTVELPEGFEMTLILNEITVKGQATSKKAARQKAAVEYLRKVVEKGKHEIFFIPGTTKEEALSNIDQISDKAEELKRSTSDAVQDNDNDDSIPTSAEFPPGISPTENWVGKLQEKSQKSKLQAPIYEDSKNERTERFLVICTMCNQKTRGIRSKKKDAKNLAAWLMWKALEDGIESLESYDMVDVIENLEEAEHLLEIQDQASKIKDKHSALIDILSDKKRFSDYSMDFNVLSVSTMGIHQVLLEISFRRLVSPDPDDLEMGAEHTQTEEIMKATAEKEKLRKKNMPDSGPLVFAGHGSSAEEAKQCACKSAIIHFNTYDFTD

B1: 3'ovr 106-dsRNA (dsRNA)
RNA 1: GGCAAUGAAAGACGGUGAGCUGGUGAUAUGGGAUAGUGUUCACCCUUGUUACACCGUUUUCCAUGAGCAAACUGAAACGUUUUCAUCGCUCUGGAGUGAAUACCAA
RNA 2: GGUAUUCACUCCAGAGCGAUGAAAACGUUUCAGUUUGCUCAUGGAAAACGGUGUAACAAGGGUGAACACUAUCCCAUAUCACCAGCUCACCGUCUUUCAUUGCCAA
On to B1, for which the binding result is listed as “binds”.
